In PMC10531356, “Hardening of Respiratory Syncytial Virus Inclusion Bodies by Cyclopamine Proceeds through Perturbation of the Interactions of the M2-1 Protein with RNA and the P Protein” (International Journal of Molecular Sciences, 2023):
Where no end group is shown, it is not given here. The star is where a group is joined. FITC = O=C1OC2(c3ccc(O)cc3Oc3cc(O)ccc32)c2ccc(NC(=S)*)cc21

Columns and labels:
[1] = target: M2-1-mCherry fusion protein (wild type) (human respiratory syncytial virus (hRSV), strain Long); assay: SEC; Hi-Load 16/600 Superdex 200, 20 mM Tris-HCl pH 7.4, 150 mM NaCl, after GST cleavage
[2] = target: M2-1(R151K)-mCherry mutant (human respiratory syncytial virus (hRSV), strain Long); assay: as above
[3] = target: T1, M2-1 core domain (wild type) (human respiratory syncytial virus …, UniProt P04545 58-177, 15N-labelled for NMR); assay: MST; FITC-P95-112 fixed at 100 nM, M2-1core 0 to 33.5 µM, PBS with 1% DMSO and 0, 1 or 10 µM CPM, 20 °C, Monolith NT.115; settings: both partners purified
T1 construct: C-terminal globular core domain of M2-1 of hRSV strain Long, from pGEX-M2-1core; UniProt entry of strain Long not known to me; also called 15N-M2-1core; WT M2-1core
T1 sequence: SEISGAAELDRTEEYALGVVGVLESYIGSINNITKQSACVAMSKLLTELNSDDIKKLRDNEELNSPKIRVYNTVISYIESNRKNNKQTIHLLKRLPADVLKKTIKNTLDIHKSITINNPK

Molecule: M2-1-mCherry fusion protein (wild type) (natural protein)
- stoichiometry N [1]: 4

Molecule: M2-1(R151K)-mCherry mutant (natural protein)
- stoichiometry N [2]: 4

B1: FITC-P(95-112) peptide (peptide)
peptide: {FITC}-DNPFSKLYKETIETFDNN
notes: also called synthetic FITC-P peptide; P peptide; source: synthetic peptide, bought: Proteogenix
- Kd [3]: ~20 µM
